Laboratory results from IntAct's records for PubMed 15644415.

B1: 1-phosphatidylinositol 4,5-bisphosphate phosphodiesterase gamma-2 (Homo sapiens), P16885 (parent)
chain: MSTTVNVDSLAEYEKSQIKRALELGTVMTVFSFRKSTPERRTVQVIMETRQVAWSKTADKIEGFLDIMEIKEIRPGKNSKDFERAKAVRQKEDCCFTILYGTQFVLSTLSLAADSKEDAVNWLSGLKILHQEAMNASTPTIIESWLRKQIYSVDQTRRNSISLRELKTILPLINFKVSSAKFLKDKFVEIGAHKDELSFEQFHLFYKKLMFEQQKSILDEFKKDSSVFILGNTDRPDASAVYLHDFQRFLIHEQQEHWAQDLNKVRERMTKFIDDTMRETAEPFLFVDEFLTYLFSRENSIWDEKYDAVDMQDMNNPLSHYWISSSHNTYLTGDQLRSESSPEAYIRCLRMGCRCIELDCWDGPDGKPVIYHGWTRTTKIKFDDVVQAIKDHAFVTSSFPVILSIEEHCSVEQQRHMAKAFKEVFGDLLLTKPTEASADQLPSPSQLREKIIIKHKKLGPRGDVDVNMEDKKDEHKQQGELYMWDSIDQKWTRHYCAIADAKLSFSDDIEQTMEEEVPQDIPPTELHFGEKWFHKKVEKRTSAEKLLQEYCMETGGKDGTFLVRESETFPNDYTLSFWRSGRVQHCRIRSTMEGGTLKYYLTDNLTFSSIYALIQHYRETHLRCAEFELRLTDPVPNPNPHESKPWYYDSLSRGEAEDMLMRIPRDGAFLIRKREGSDSYAITFRARGKVKHCRINRDGRHFVLGTSAYFESLVELVSYYEKHSLYRKMRLRYPVTPELLERYNMERDINSLYDVSRMYVDPSEINPSMPQRTVKALYDYKAKRSDELSFCRGALIHNVSKEPGGWWKGDYGTRIQQYFPSNYVEDISTADFEELEKQIIEDNPLGSLCRGILDLNTYNVVKAPQGKNQKSFVFILEPKQQGDPPVEFATDRVEELFEWFQSIREITWKIDTKENNMKYWEKNQSIAIELSDLVVYCKPTSKTKDNLENPDFREIRSFVETKADSIIRQKPVDLLKYNQKGLTRVYPKGQRVDSSNYDPFRLWLCGSQMVALNFQTADKYMQMNHALFSLNGRTGYVLQPESMRTEKYDPMPPESQRKILMTLTVKVLGARHLPKLGRSIACPFVEVEICGAEYDNNKFKTTVVNDNGLSPIWAPTQEKVTFEIYDPNLAFLRFVVYEEDMFSDPNFLAHATYPIKAVKSGFRSVPLKNGYSEDIELASLLVFCEMRPVLESEEELYSSCRQLRRRQEELNNQLFLYDTHQNLRNANRDALVKEFSVNENQLQLYQEKCNKRLREKRVSNSKFYS
partner: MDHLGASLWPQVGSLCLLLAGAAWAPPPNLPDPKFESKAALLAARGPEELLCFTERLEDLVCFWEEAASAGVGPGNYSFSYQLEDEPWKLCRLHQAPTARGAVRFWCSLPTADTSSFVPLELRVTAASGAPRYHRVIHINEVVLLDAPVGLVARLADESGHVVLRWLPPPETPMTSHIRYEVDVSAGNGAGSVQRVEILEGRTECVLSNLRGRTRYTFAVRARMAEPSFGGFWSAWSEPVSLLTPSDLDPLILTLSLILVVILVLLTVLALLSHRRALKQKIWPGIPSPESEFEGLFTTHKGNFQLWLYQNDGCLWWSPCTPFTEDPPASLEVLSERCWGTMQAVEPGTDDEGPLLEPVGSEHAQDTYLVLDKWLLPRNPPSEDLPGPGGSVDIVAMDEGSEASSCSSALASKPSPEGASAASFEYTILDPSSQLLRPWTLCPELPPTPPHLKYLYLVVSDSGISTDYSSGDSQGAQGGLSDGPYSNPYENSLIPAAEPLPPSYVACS
B2: Erythropoietin receptor (Homo sapiens), P19235 (parent)
chain: B1 partner
partner: B1 chain
B3: Erythropoietin receptor (Homo sapiens), P19235 (parent)
chain: B1 partner
partner: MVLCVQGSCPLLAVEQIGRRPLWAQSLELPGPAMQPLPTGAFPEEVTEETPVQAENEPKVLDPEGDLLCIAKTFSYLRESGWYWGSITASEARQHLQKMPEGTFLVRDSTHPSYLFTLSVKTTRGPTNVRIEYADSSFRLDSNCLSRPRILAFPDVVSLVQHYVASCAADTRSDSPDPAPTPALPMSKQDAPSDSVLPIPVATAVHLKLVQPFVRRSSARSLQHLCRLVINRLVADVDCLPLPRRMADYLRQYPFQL
B4: Erythropoietin receptor (Homo sapiens), P19235 (parent)
chain: B1 partner
partner: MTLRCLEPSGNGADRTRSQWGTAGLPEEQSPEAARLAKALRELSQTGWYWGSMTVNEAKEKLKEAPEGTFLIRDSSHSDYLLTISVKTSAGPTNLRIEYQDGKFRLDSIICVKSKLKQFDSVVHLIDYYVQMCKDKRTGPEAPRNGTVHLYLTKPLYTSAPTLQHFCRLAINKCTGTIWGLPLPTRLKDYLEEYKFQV

Variants of: B1
Conditions: with epor_human EPOR

Variant | effect of a mutation on the interaction
K367F | decreasing interaction

Variants of: B2
Conditions: with plcg2_human PLCG2, P16885

Variant | effect of a mutation on the interaction
MDHLGASLWPQVGSLCLLLAGAAWAPPPNLPDPKFESKAALLAARGPEELLCFTERLEDLVCFWEEAASAGVGPGNYSFSYQLEDEPWKLCRLHQAPTARGAVRFWCSLPTADTSSFVPLELRVTAASGAPRYHRVIHINEVVLLDAPVGLVARLADESGHVVLRWLPPPETPMTSHIRYEVDVSAGNGAGSVQRVEILEGRTECVLSNLRGRTRYTFAVRARMAEPSFGGFWSAWSEPVSLLTPSDLDPLILTLSLILVVILVLLTVLALLSHRRALKQKIWPGIPSPESEFEGLFTTHKGNFQLWLYQNDGCLWWSPCTPFTEDPPASLEVLSERCWGTMQAVEPGTDDEGPLLEPVGSEHAQDTYLVLDKWLLPRNPPSEDLPGPGGSVDIVAMDEGSEASSCSSALASKPSPEGASAASFEYTILDPSSQLLRPWTLCPELPPTPPHLKYLFLVVSDSGISTDYSSGDSQGAQGGLSDGPYSNPYENSLIPAAEPLPPSYVACS [Y456F] | decreasing interaction
MDHLGASLWPQVGSLCLLLAGAAWAPPPNLPDPKFESKAALLAARGPEELLCFTERLEDLVCFWEEAASAGVGPGNYSFSYQLEDEPWKLCRLHQAPTARGAVRFWCSLPTADTSSFVPLELRVTAASGAPRYHRVIHINEVVLLDAPVGLVARLADESGHVVLRWLPPPETPMTSHIRYEVDVSAGNGAGSVQRVEILEGRTECVLSNLRGRTRYTFAVRARMAEPSFGGFWSAWSEPVSLLTPSDLDPLILTLSLILVVILVLLTVLALLSHRRALKQKIWPGIPSPESEFEGLFTTHKGNFQLWLYQNDGCLWWSPCTPFTEDPPASLEVLSERCWGTMQAVEPGTDDEGPLLEPVGSEHAQDTYLVLDKWLLPRNPPSEDLPGPGGSVDIVAMDEGSEASSCSSALASKPSPEGASAASFEYTILDPSSQLLRPWTLCPELPPTPPHLKYLYLVVSDSGISTDYSSGDSQGAQGGLSDGPYSNPYENSLIPAAEPLPPSFVACS [Y504F] | decreasing interaction

Variants of: B3
Conditions: with cish_mouse Cish

Variant | effect of a mutation on the interaction
MDHLGASLWPQVGSLCLLLAGAAWAPPPNLPDPKFESKAALLAARGPEELLCFTERLEDLVCFWEEAASAGVGPGNYSFSYQLEDEPWKLCRLHQAPTARGAVRFWCSLPTADTSSFVPLELRVTAASGAPRYHRVIHINEVVLLDAPVGLVARLADESGHVVLRWLPPPETPMTSHIRYEVDVSAGNGAGSVQRVEILEGRTECVLSNLRGRTRYTFAVRARMAEPSFGGFWSAWSEPVSLLTPSDLDPLILTLSLILVVILVLLTVLALLSHRRALKQKIWPGIPSPESEFEGLFTTHKGNFQLWLYQNDGCLWWSPCTPFTEDPPASLEVLSERCWGTMQAVEPGTDDEGPLLEPVGSEHAQDTYLVLDKWLLPRNPPSEDLPGPGGSVDIVAMDEGSEASSCSSALASKPSPEGASAASFEYTILDPSSQLLRPWTLCPELPPTPPHLKFLYLVVSDSGISTDYSSGDSQGAQGGLSDGPYSNPYENSLIPAAEPLPPSYVACS [Y454F] | decreasing interaction

Variants of: B3
Conditions: with cish_mouse Cish
Remark: another data set of the same source

Variant | effect of a mutation on the interaction
MDHLGASLWPQVGSLCLLLAGAAWAPPPNLPDPKFESKAALLAARGPEELLCFTERLEDLVCFWEEAASAGVGPGNYSFSYQLEDEPWKLCRLHQAPTARGAVRFWCSLPTADTSSFVPLELRVTAASGAPRYHRVIHINEVVLLDAPVGLVARLADESGHVVLRWLPPPETPMTSHIRYEVDVSAGNGAGSVQRVEILEGRTECVLSNLRGRTRYTFAVRARMAEPSFGGFWSAWSEPVSLLTPSDLDPLILTLSLILVVILVLLTVLALLSHRRALKQKIWPGIPSPESEFEGLFTTHKGNFQLWLYQNDGCLWWSPCTPFTEDPPASLEVLSERCWGTMQAVEPGTDDEGPLLEPVGSEHAQDTYLVLDKWLLPRNPPSEDLPGPGGSVDIVAMDEGSEASSCSSALASKPSPEGASAASFEFTILDPSSQLLRPWTLCPELPPTPPHLKYLYLVVSDSGISTDYSSGDSQGAQGGLSDGPYSNPYENSLIPAAEPLPPSYVACS [Y426F] | decreasing interaction

Variants of: B4
Conditions: with socs2_mouse Socs2, O35717

Variant | effect of a mutation on the interaction
MDHLGASLWPQVGSLCLLLAGAAWAPPPNLPDPKFESKAALLAARGPEELLCFTERLEDLVCFWEEAASAGVGPGNYSFSYQLEDEPWKLCRLHQAPTARGAVRFWCSLPTADTSSFVPLELRVTAASGAPRYHRVIHINEVVLLDAPVGLVARLADESGHVVLRWLPPPETPMTSHIRYEVDVSAGNGAGSVQRVEILEGRTECVLSNLRGRTRYTFAVRARMAEPSFGGFWSAWSEPVSLLTPSDLDPLILTLSLILVVILVLLTVLALLSHRRALKQKIWPGIPSPESEFEGLFTTHKGNFQLWLYQNDGCLWWSPCTPFTEDPPASLEVLSERCWGTMQAVEPGTDDEGPLLEPVGSEHAQDTYLVLDKWLLPRNPPSEDLPGPGGSVDIVAMDEGSEASSCSSALASKPSPEGASAASFEFTILDPSSQLLRPWTLCPELPPTPPHLKYLYLVVSDSGISTDYSSGDSQGAQGGLSDGPYSNPYENSLIPAAEPLPPSYVACS [Y426F] | decreasing interaction
